The values below come from patent publication US20110166062A1 (INDIANA UNIVERSITY RESEARCH AND TECHNOLOGY, published 2011).

What all share (assay): cell-based or functional assay
Test [1] has as its target glucagon receptor (UniProt P47871 26-477, limits assumed).
The target of test [2] is GLP-1 receptor (UniProt P43220 24-463, limits assumed).
Test [3] deals with T1, GIP receptor (UniProt P48546 22-466).
T1 sequence (looked up): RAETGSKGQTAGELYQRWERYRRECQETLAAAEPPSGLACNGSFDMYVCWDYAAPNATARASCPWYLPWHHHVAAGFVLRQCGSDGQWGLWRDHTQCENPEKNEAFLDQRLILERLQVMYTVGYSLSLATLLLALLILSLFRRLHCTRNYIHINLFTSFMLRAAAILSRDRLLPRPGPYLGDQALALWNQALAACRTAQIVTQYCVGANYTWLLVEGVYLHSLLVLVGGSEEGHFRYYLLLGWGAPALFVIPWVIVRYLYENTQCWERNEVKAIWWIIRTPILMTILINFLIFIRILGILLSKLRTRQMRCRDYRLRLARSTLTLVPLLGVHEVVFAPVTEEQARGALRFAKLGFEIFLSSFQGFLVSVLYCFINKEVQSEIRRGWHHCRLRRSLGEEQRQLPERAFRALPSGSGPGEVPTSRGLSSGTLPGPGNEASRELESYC

Primed or numbered codes have the meaning given here. Where no end group is shown, it is not given here. [ ]: non-standard residue; d: D form. PEG 40 kDa″ = polyethylene glycol of 40 kDa covalently attached to the side chain; Aib = CC(C)(N)C(=O)O

Chain of glucagon receptor (P47871 26-477 limits assumed): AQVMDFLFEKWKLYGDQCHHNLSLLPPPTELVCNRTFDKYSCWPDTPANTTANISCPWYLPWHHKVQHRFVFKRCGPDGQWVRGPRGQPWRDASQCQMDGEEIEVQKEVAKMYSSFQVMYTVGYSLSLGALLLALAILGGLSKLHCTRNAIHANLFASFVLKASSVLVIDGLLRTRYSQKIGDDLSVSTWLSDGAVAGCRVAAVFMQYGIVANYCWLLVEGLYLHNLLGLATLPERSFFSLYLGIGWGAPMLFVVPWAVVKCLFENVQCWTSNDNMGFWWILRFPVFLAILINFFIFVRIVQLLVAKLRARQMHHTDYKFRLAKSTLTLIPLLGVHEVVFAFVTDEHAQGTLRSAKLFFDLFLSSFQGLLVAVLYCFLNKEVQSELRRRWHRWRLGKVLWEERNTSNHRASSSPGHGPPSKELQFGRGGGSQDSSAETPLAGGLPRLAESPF

Broadly, the EC50 is the concentration at which the effect is half-maximal. A higher EC50 goes with a less potent agent. Y[Aib]QGTFTSDYSIYLD[Aib]QAAKEFVNWLLAGGPSSGAPPPSC(PEG 40 kDa″)-NH2 [mt-248]: the “EC50” value in test [1] was 16.7 nM; in test [2] it was 0.103 nM; in test [3], 3.23 nM. The figures for the relative activity in test [1], in test [2] and in test [3] were 0.37%, 9.71% and 0.53%, respectively.

B1: mt-241 (peptide)
peptide: Y[Aib]QGTFTSDYSIYLD[Aib]QAAKEFVNWLLAGGPSSGAPPPSC-NH2
modifications: N-terminus assumed
SMILES: CC[C@H](C)[C@H](NC(=O)[C@H](CO)NC(=O)[C@H](Cc1ccc(O)cc1)NC(=O)[C@H](CC(=O)O)NC(=O)[C@H](CO)NC(=O)[C@@H](NC(=O)[C@H](Cc1ccccc1)NC(=O)[C@@H](NC(=O)CNC(=O)[C@H](CCC(N)=O)NC(=O)C(C)(C)NC(=O)[C@@H](N)Cc1ccc(O)cc1)[C@@H](C)O)[C@@H](C)O)C(=O)N[C@@H](Cc1ccc(O)cc1)C(=O)N[C@@H](CC(C)C)C(=O)N[C@@H](CC(=O)O)C(=O)NC(C)(C)C(=O)N[C@@H](CCC(N)=O)C(=O)N[C@@H](C)C(=O)N[C@@H](C)C(=O)N[C@@H](CCCCN)C(=O)N[C@@H](CCC(=O)O)C(=O)N[C@@H](Cc1ccccc1)C(=O)N[C@H](C(=O)N[C@@H](CC(N)=O)C(=O)N[C@@H](Cc1c[nH]c2ccccc12)C(=O)N[C@@H](CC(C)C)C(=O)N[C@@H](CC(C)C)C(=O)N[C@@H](C)C(=O)NCC(=O)NCC(=O)N1CCC[C@H]1C(=O)N[C@@H](CO)C(=O)N[C@@H](CO)C(=O)NCC(=O)N[C@@H](C)C(=O)N1CCC[C@H]1C(=O)N1CCC[C@H]1C(=O)N1CCC[C@H]1C(=O)N[C@@H](CO)C(=O)N[C@@H](CS)C(N)=O)C(C)C
On to B1, for which the “EC50” value is 2.84 nM in test [1], 0.023 nM in test [2] and 0.252 nM in test [3]. For the same molecule, the values for the relative activity in test [1], in test [2] and in test [3] were 3.73%, 130% and 4.37%, respectively.

B2: mt-252 (peptide)
peptide: Y[Aib]QGTFTSDYSIYLDKQAA[Aib]EFVNWLLAGGPSSGAPPPSC-NH2
modifications: N-terminus assumed
SMILES: CC[C@H](C)[C@H](NC(=O)[C@H](CO)NC(=O)[C@H](Cc1ccc(O)cc1)NC(=O)[C@H](CC(=O)O)NC(=O)[C@H](CO)NC(=O)[C@@H](NC(=O)[C@H](Cc1ccccc1)NC(=O)[C@@H](NC(=O)CNC(=O)[C@H](CCC(N)=O)NC(=O)C(C)(C)NC(=O)[C@@H](N)Cc1ccc(O)cc1)[C@@H](C)O)[C@@H](C)O)C(=O)N[C@@H](Cc1ccc(O)cc1)C(=O)N[C@@H](CC(C)C)C(=O)N[C@@H](CC(=O)O)C(=O)N[C@@H](CCCCN)C(=O)N[C@@H](CCC(N)=O)C(=O)N[C@@H](C)C(=O)N[C@@H](C)C(=O)NC(C)(C)C(=O)N[C@@H](CCC(=O)O)C(=O)N[C@@H](Cc1ccccc1)C(=O)N[C@H](C(=O)N[C@@H](CC(N)=O)C(=O)N[C@@H](Cc1c[nH]c2ccccc12)C(=O)N[C@@H](CC(C)C)C(=O)N[C@@H](CC(C)C)C(=O)N[C@@H](C)C(=O)NCC(=O)NCC(=O)N1CCC[C@H]1C(=O)N[C@@H](CO)C(=O)N[C@@H](CO)C(=O)NCC(=O)N[C@@H](C)C(=O)N1CCC[C@H]1C(=O)N1CCC[C@H]1C(=O)N1CCC[C@H]1C(=O)N[C@@H](CO)C(=O)N[C@@H](CS)C(N)=O)C(C)C
As to B2, the “EC50” value in test [1] was 0.319 nM; in test [2] it was 0.018 nM; in test [3], 0.013 nM. Moreover, the relative activity in test [1] amounted to 13.2%; in test [2], 117%; in test [3], 146%.

B3: mt-250 (peptide)
peptide: Y[Aib]QGTFTSDYSIYLD[Aib]QAA[Aib]EFVNWLLAGGPSSGAPPPSC-NH2
modifications: N-terminus assumed
SMILES: CC[C@H](C)[C@H](NC(=O)[C@H](CO)NC(=O)[C@H](Cc1ccc(O)cc1)NC(=O)[C@H](CC(=O)O)NC(=O)[C@H](CO)NC(=O)[C@@H](NC(=O)[C@H](Cc1ccccc1)NC(=O)[C@@H](NC(=O)CNC(=O)[C@H](CCC(N)=O)NC(=O)C(C)(C)NC(=O)[C@@H](N)Cc1ccc(O)cc1)[C@@H](C)O)[C@@H](C)O)C(=O)N[C@@H](Cc1ccc(O)cc1)C(=O)N[C@@H](CC(C)C)C(=O)N[C@@H](CC(=O)O)C(=O)NC(C)(C)C(=O)N[C@@H](CCC(N)=O)C(=O)N[C@@H](C)C(=O)N[C@@H](C)C(=O)NC(C)(C)C(=O)N[C@@H](CCC(=O)O)C(=O)N[C@@H](Cc1ccccc1)C(=O)N[C@H](C(=O)N[C@@H](CC(N)=O)C(=O)N[C@@H](Cc1c[nH]c2ccccc12)C(=O)N[C@@H](CC(C)C)C(=O)N[C@@H](CC(C)C)C(=O)N[C@@H](C)C(=O)NCC(=O)NCC(=O)N1CCC[C@H]1C(=O)N[C@@H](CO)C(=O)N[C@@H](CO)C(=O)NCC(=O)N[C@@H](C)C(=O)N1CCC[C@H]1C(=O)N1CCC[C@H]1C(=O)N1CCC[C@H]1C(=O)N[C@@H](CO)C(=O)N[C@@H](CS)C(N)=O)C(C)C
For B3, the “EC50” value came out at 0.667 nM in test [1], 0.033 nM in test [2] and 0.062 nM in test [3]. Further, the figures for the relative activity in test [1], in test [2] and in test [3] were 6.3%, 63.6% and 30.6%, respectively.
As to Y[Aib]QGTFTSDYSIYLDKQAA[Aib]EFVNWLLAGGPSSGAPPPSC(PEG 40 kDa″)-NH2 [mt-255], the results for the “EC50” value in test [1], in test [2] and in test [3] were 5.46 nM, 0.018 nM and 0.013 nM, respectively. Also, the relative activity stood at 2.45% in test [1], 117% in test [2] and 146% in test [3].

B4: mt-251 (peptide)
peptide: Y[Aib]QGTFTSDYSIYLDEQAA[Aib]EFVNWLLAGGPSSGAPPPSC-NH2
modifications: N-terminus assumed
SMILES: CC[C@H](C)[C@H](NC(=O)[C@H](CO)NC(=O)[C@H](Cc1ccc(O)cc1)NC(=O)[C@H](CC(=O)O)NC(=O)[C@H](CO)NC(=O)[C@@H](NC(=O)[C@H](Cc1ccccc1)NC(=O)[C@@H](NC(=O)CNC(=O)[C@H](CCC(N)=O)NC(=O)C(C)(C)NC(=O)[C@@H](N)Cc1ccc(O)cc1)[C@@H](C)O)[C@@H](C)O)C(=O)N[C@@H](Cc1ccc(O)cc1)C(=O)N[C@@H](CC(C)C)C(=O)N[C@@H](CC(=O)O)C(=O)N[C@@H](CCC(=O)O)C(=O)N[C@@H](CCC(N)=O)C(=O)N[C@@H](C)C(=O)N[C@@H](C)C(=O)NC(C)(C)C(=O)N[C@@H](CCC(=O)O)C(=O)N[C@@H](Cc1ccccc1)C(=O)N[C@H](C(=O)N[C@@H](CC(N)=O)C(=O)N[C@@H](Cc1c[nH]c2ccccc12)C(=O)N[C@@H](CC(C)C)C(=O)N[C@@H](CC(C)C)C(=O)N[C@@H](C)C(=O)NCC(=O)NCC(=O)N1CCC[C@H]1C(=O)N[C@@H](CO)C(=O)N[C@@H](CO)C(=O)NCC(=O)N[C@@H](C)C(=O)N1CCC[C@H]1C(=O)N1CCC[C@H]1C(=O)N1CCC[C@H]1C(=O)N[C@@H](CO)C(=O)N[C@@H](CS)C(N)=O)C(C)C
Turning to B4, the “EC50” value in test [1] was determined as 2.76 nM; in test [2], 0.015 nM; in test [3] it was 0.033 nM. In addition, the relative activity was determined as 1.52% in test [1], 140% in test [2] and 57.6% in test [3].
